Switch fluorescence ratio data for 120 sequences are collected here from the supplement of paper PMC10126150.

The test system of this data set is ATP. The data set can be described thus: switch fluorescence ratio, 500 uM ATP over buffer (Cy3 cluster intensity, sum of 5 cycles each) (fold (ratio)); higher = stronger signal-on switching upon ATP binding; sequences stand for … in TCGTCGGCAGCGTCAGATGTGTATAAGAGACAGTTTTTTTTTTTTTTTTTTTTTTTTT…TC. The settings on record: aptamer strand: ATP DNA aptamer (quencher-CACCTGGGGGAGTATTGCGGAGGAAGG + anchor), 100 nM annealed; ATP concentration: 500 uM. The gist of the method: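 The quencher-labelled ATP aptamer, at 100 nM, was annealed to Cy3-labelled switching-strand clusters on a modified Illumina MiSeq flow-cell. The clusters were imaged in selection buffer, then after 15 min with 500 uM ATP at 22 °C, and this buffer/ATP cycle ran five times with NaOH stripping and re-annealing between runs. Per-cluster fluorescence ratios, summed target-cycle over summed buffer-cycle Cy3 intensity, were averaged per switch-domain sequence. Clusters outside 100-1000 RFU were excluded.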

± gives the standard deviation of the averaged measurements.
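Also: ATP exposure 15 min at 22 °C before imaging.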

For CCCACCGGGC, the switch fluorescence ratio is 1.05 ± 0.022. The same measure for TTGGAAAGGG: 0.985 ± 0.016; for AAGTATAGTT: 1.04 ± 0.056; for ATTTGACCAT: 1.13 ± 0.18.

As to TTGGAGCGTG, the switch fluorescence ratio amounted to 1.003 ± 0.0015. The value for CTGTCATGGG was 0.9952 ± 0.0063; that for CAAGGTAAGT was 1.03 ± 0.056. The value for ACAGGGTGTC was 1.05 ± 0.031; that for TGAGTGATTG was 1.04 ± 0.052; that for CGTTTTTTGT was 0.9843 ± 0.002. In the case of GGTCGAGCC, the switch fluorescence ratio stood at 0.983 ± 0.021. The same measure for GCATGGTTAT: 0.993 ± 0.036. The value for AGATTTTTCA was 1 ± 0.021; that for GGGCCCTGGG was 0.994 ± 0.059. The same measure for GAGTTTAATT: 0.999 ± 0.038; for GCGTATTGGC: 1.03 ± 0.013; for ATGGGGGGTA: 0.986 ± 0.044.

For AGAATTTAAA, the switch fluorescence ratio was found to be 0.992 ± 0.032. Take AGTAGGACGC: the switch fluorescence ratio was 1.02 ± 0.018.

For CTGGGACAAA, the switch fluorescence ratio stood at 1.001 ± 0.0016. The same measure for GGAGTAGGGA: 1.02 ± 0.031; for GTTCTGATGT: 1.01 ± 0.029; for GCGTACGGCG: 0.993 ± 0.054.

In the case of CCGATTAAAT, the switch fluorescence ratio is 1.44 ± 0.1.

In the case of TTTCAGTGAC, the switch fluorescence ratio worked out at 1.04 ± 0.079. The same measure for AGGTTATTA: 0.9856 ± 0.0031. The same measure for ACTTAAAAAC: 1.08 ± 0.055; for GAAGGTATGT: 0.96567 ± 1.1e-05; for TATCATGCGC: 1.02 ± 0.054. AGCTGGAGGT: the switch fluorescence ratio turned out to be 0.992 ± 0.026. For TTGACTGGG, the switch fluorescence ratio was found to be 0.991 ± 0.023. The value for TATTGGAGAT was 1 ± 0.021. The value for GTTTGGGGGG was 1.04 ± 0.13; that for GGGTTGGGCT was 1 ± 0.03; that for GCGGGGACGC was 0.9982 ± 0.0021. The value for GTGAATGGGG was 0.969 ± 0.042; that for GATGGAACAC was 0.994 ± 0.017. For CATAGTCCTC, the switch fluorescence ratio was 0.964 ± 0.041. As for TTGGATAGTT, the switch fluorescence ratio was 1.09 ± 0.16.

For AGGGAAATGG, the switch fluorescence ratio was 0.979 ± 0.034. The value for TTGGGGGG was 1.004 ± 0.0069; that for TCTGCCACCT was 1.023 ± 0.0075. The value for ATATAGCACG was 1.02 ± 0.033.

As for CGATTATCGG, the switch fluorescence ratio worked out at 0.999 ± 0.014.

With GCTTTATTGC, the switch fluorescence ratio is 1.01 ± 0.014.

Consider TTTGGAGTGG, for which the switch fluorescence ratio turned out to be 0.998 ± 0.033.

With ATTATACAGC, the switch fluorescence ratio worked out at 0.993 ± 0.025.

For GGTTTGCTGT, the switch fluorescence ratio was found to be 0.99034 ± 0.00027. For the sequence GATCTCAGGG, the switch fluorescence ratio is 1 ± 0.034. The same measure for AGGTGGGATT: 1.02 ± 0.033; for GGTCCGGGGC: 1.01 ± 0.026; for ACAGTAATGG: 1.05 ± 0.041.

Regarding TCGGCGGGTC, the switch fluorescence ratio was determined as 0.9973 ± 0.0015. The same measure for GGGGGTATAG: 1.02 ± 0.022; for CAATAATTTG: 0.99184 ± 0.00043; for GGGTGAGATC: 1.02 ± 0.012.

Consider GGTCTAGG, for which the switch fluorescence ratio was 0.992 ± 0.036. Turning to ATGAGGTGGG, the switch fluorescence ratio came out at 0.992 ± 0.036. The value for TAAGGCTTTG was 0.9987 ± 0.0068. Take CCGGTAGGTA: the switch fluorescence ratio is 0.969 ± 0.011. The value for TCTTGCCCTG was 0.977 ± 0.058; that for GGCATCTGGG was 1.026 ± 0.0011. The same measure for ATTATGGGT: 0.9931 ± 0.0086; for AAAGTTATGT: 1 ± 0.045; for TAGTAACATA: 1.006 ± 0.0036. The value for CCGGTTTGGA was 1.13 ± 0.17. As for TTCATCCAGC, the switch fluorescence ratio stood at 1.13 ± 0.07. The value for AATATGGGGT was 1.01 ± 0.014. The value for ACCATCAAAT was 0.9853 ± 0.0068; that for TTTGTGGTCC was 0.98 ± 0.039; that for GGAAAGGGAT was 0.991 ± 0.012. The same measure for GAAAAGTATC: 1.001 ± 0.0022. With GCCTTGGACT, the switch fluorescence ratio came to 0.976 ± 0.027. The same measure for TTGGGGTATA: 1.03 ± 0.055. The same measure for GATGGAGGGA: 1.01 ± 0.028; for CACTGAGCTG: 1.07 ± 0.077; for AGGGGGGAAC: 1.01 ± 0.024. The value for CCAGACACAG was 0.9849 ± 0.002; that for TTGTGGTACG was 0.981 ± 0.041.

Regarding TTTAGCCGGT, the switch fluorescence ratio worked out at 0.995 ± 0.012. The value for TAATACCCCG was 1.06 ± 0.054; that for GGTTGTTCGT was 1.006 ± 0.0037; that for GGATATGGTT was 0.987 ± 0.034. Turning to GATGATTCTG, the switch fluorescence ratio worked out at 1.001 ± 0.0056. As for TAATCGTGCT, the switch fluorescence ratio turned out to be 0.973 ± 0.019.

As for TCAGGGGGGA, the switch fluorescence ratio stood at 1 ± 0.04. As to AGGTCGGCAA, the switch fluorescence ratio came out at 1.02 ± 0.014. The same measure for TTCTAGCTTG: 1.01 ± 0.047; for AGTAATGGG: 0.97 ± 0.054.

Take TGCGGCTGGG: the switch fluorescence ratio turned out to be 0.978 ± 0.019. The same measure for GCGGCAGGGC: 1.05 ± 0.017; for TTTTAAAGAT: 0.977 ± 0.021; for ACAGAGGGAT: 1.02 ± 0.018.

With GGTTTGCAAG, the switch fluorescence ratio was 0.986 ± 0.018.

Turning to GGAAGATGGG, the switch fluorescence ratio stood at 0.99 ± 0.021. The same measure for TTTGAAGAAC: 1.01 ± 0.056; for TTATCTAAGT: 1 ± 0.036. ACTAGTAGTC: the switch fluorescence ratio amounted to 0.994 ± 0.012.

On to CTCTAGCTTT, for which the switch fluorescence ratio is 1.09 ± 0.075. The value for TTTGTGGGGC was 1.01 ± 0.042; that for TCCAATTGCG was 0.953 ± 0.021. As for ATGGGGGTAA, the switch fluorescence ratio was 1.01 ± 0.024. As for GGTGATTTGT, the switch fluorescence ratio amounted to 1 ± 0.03. The same measure for TGGGACTGGG: 1.01 ± 0.06; for TAGTCTGGT: 0.999 ± 0.016; for ATCAGGGGCA: 1.057 ± 0.0049. For the sequence ATTTGTTCTG, the switch fluorescence ratio stood at 0.962 ± 0.038. The same measure for CGTACTAGAT: 0.9959 ± 0.0086. The value for AGGAAATGTT was 1 ± 0.051. The value for TGATCGGATA was 1 ± 0.04. As for TTAACCCTTT, the switch fluorescence ratio was 1.02 ± 0.021.

For TGAATCCTCG, the switch fluorescence ratio is 1.05 ± 0.012. The same measure for GATTTCGGCG: 0.97 ± 0.03; for GCCGGATTGC: 1.07 ± 0.033. Take GGTGGGGGAT: the switch fluorescence ratio was 1.01 ± 0.015. With TGAGGGGGGG, the switch fluorescence ratio turned out to be 0.999 ± 0.034. The value for TTTTGTCGCG was 0.9735 ± 0.0032. The same measure for CCGTTGAGTC: 1.06 ± 0.049. The same measure for ATTGATGAGT: 0.993 ± 0.04; for AGGCCTCTGT: 0.99 ± 0.011.
